In paper PMC10847417, “CIP2A induces PKM2 tetramer formation and oxidative phosphorylation in non-small cell lung cancer” (Cell Discovery, 2024):

B1: purified recombinant S287A PKM2 expressed in bacteria (enzyme)
chain: not shown
notes: PKM2 S287A, recombinant; construct, tag and limits not described; source: expressed in bacteria, purified recombinant
B2: purified recombinant S287D PKM2 expressed in bacteria (enzyme)
chain: not shown
notes: PKM2 S287D (phospho-mimetic), recombinant; construct, tag and limits not described; source: expressed in bacteria, purified recombinant

Target: the molecule itself
Test: SEC; purified recombinant WT, S287A and S287D PKM2 expressed in bacteria; size exclusion chromatography with molecular mass standards

Protein	stoichiometry N
B1	2
B2	4
